The values below come from patent publication US20240287172A1 (SCIRHOM, published 2024).

Positions count from the first letter of the chain named. Where only a bound is given, the exact number is not on record here.

One experiment concerns the target T1, hiR2-FL-K542A-T7 (human, UniProt Q6PJF5 1-856).
T1 sequence: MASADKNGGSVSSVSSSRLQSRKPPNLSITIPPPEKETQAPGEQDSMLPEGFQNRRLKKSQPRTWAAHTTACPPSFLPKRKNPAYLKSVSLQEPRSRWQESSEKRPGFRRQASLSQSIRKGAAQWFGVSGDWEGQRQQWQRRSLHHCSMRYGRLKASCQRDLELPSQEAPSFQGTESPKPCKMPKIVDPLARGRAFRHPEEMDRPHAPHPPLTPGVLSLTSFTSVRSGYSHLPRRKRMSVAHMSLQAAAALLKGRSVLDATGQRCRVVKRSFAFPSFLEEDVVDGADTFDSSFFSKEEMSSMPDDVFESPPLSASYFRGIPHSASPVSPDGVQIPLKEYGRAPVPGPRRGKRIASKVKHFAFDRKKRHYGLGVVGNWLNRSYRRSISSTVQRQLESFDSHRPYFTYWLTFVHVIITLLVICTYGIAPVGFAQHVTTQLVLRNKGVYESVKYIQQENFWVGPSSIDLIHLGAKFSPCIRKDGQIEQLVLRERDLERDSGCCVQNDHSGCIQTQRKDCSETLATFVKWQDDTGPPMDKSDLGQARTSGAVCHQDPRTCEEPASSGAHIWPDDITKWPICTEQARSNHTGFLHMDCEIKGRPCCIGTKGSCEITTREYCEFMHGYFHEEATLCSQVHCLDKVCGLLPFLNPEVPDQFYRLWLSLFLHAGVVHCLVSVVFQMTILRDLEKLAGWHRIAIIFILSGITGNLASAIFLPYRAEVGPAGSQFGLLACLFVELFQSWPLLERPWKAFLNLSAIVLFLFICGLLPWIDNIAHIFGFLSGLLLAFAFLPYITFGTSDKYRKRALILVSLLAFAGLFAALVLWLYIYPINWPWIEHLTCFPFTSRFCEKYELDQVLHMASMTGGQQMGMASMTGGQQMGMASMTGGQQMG
The experiment in a line: FACS on MEF-DKO cells expressing the variant, 3 µg/ml antibody. In a few lines:
(§1)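 Pelleted cells are resuspended in antibody at 3 μg/ml and kept on ice 1 hour, washed, then incubated with PE goat anti-mouse IgG F(ab′)2 diluted 1:100 on ice for 1 hour protected from light, washed again and analysed by flow cytometry.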

The target of a further experiment is T2, hiR2-FL-T522A-T7 (human, UniProt Q6PJF5 1-856).
T2 sequence: T1 sequence with T522A, A542K
Described as above. An outline of the steps:
as §1

B1: antibody 16 (antibody, V domains shown)
VH: QVTLKESGPGILQPSQTLSLTCSFSGFSLSTFALGVGWIRQPSGRGLEWLAHIWWDDDKYYNPALKSRLTISKDTSKNHVFLKIANVDTADTATYYCARITTYYYGMDYWGQGTSVTVSS
VL: DIVLSQSPATLSVTPGDSVSLFCRASQSIGNHLHWYQQESHASPRLLIKYASQSISGIPSRFSGSGSGTDFTLSINSVETEDFGMYFCQQSYNWPLTFGAGTKLELK
notes: mouse IgG, kappa light chain; also called clone #16; purified antibody 16
Regarding B1, the “loss of binding vs wild type” value with hiR2-FL-K542A-T7 was at least 30%.

B2: antibody 3 (antibody, V domains shown)
VH: QVTLKESGPGILQPSQTLSLTCSFSGFSLTTFAMGIGWVRQPSGKGLEWLAHIWWDGEKYNNPVLKSRLTISKDTSKNQVFLRIANVDTPDTATYYCARISSIYYIIDNWGQGTSVTVSS
VL: B1 VL with S5T, D17H, F22S, G30S, H32N, Q38K, E39K, A42E, A51V
notes: mouse IgG, kappa light chain; also called clone #3; purified antibody 3
For the molecule B2, the “loss of binding vs wild type” value with hiR2-FL-K542A-T7 was at least 60%.

B3: antibody 48 (antibody, V domains shown)
VH: QVQLQQSGTELVRPGTSVKVSCKASGYAFTNYLIEWVKQRPGQGLEWIGVINPGSGFTKYNEKFKGKATLTADKSSSTVYMHLSSLTSEDSAVYFCARGLYRAMDYWGQGTSVTVSS
VL: DIQMTQSPASQSASLGESVTITCLASQTIATWLAWYQQKPGKSPQLLIYGATTLADGVPSRFSGGGSGTKFSFKISSLQAEDFVSYYCQQLYSTPYTFGGGTKLEIK
notes: mouse IgG, kappa light chain; also called clone #48; purified antibody 48
As for B3, the “loss of binding vs wild type” value in the experiment with hiR2-FL-T522A-T7 was at least 30%.

B4: antibody 50 (antibody, V domains shown)
VH: B3 VH with T9A, T16A, T30S, V79A, H82Q
VL: B3 VL with A30G, G50A, T52A, T53S, S85N, L91I
notes: mouse IgG, kappa light chain; also called clone #50; purified antibody 50
Consider B4, for which the “loss of binding vs wild type” value with hiR2-FL-T522A-T7 is at least 30%.
